Experimental findings from a protein production outcome set (Wang et al. 2014) are described below.

The nature of the data set: label from the status in PepcDB records.
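Further: failed if final PepcDB status was selected cloned or expressed and not failed if soluble or beyond.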

On to “MDQLYQLAQAMIHNDLAVLSNPNVTLMVSGVILCFLVMENGFIPTAFLPGDTLLILTGVLIYQDVLHMGIVPLLMVATFIGTAIGYLQGYFLGHTQMYHRLLSHIDDKHQKKALYLIDKYGILTLLVARYIPFVRTIYPYIIGATGVSWSRFLVINFISSVMWITPLVGFGYVISHSKLANEYQTQFMSIIVYLPIVLLVSGIVTLIYKWLRKKKKL”, for which the protein production result is “failed”.

“MDQPWNANIHYDALLDAMVPLGTQCVLDVGCGDGLLAARLARRIPYVTAVDIDAPVLRRAQTRFANAPIRWLHADIMTAELPNAGFDAVVSNAALHHIEDTRTALSRLGGLVTPGGTLAVVTFVTPSLRNGLWHLTSWVACGMANRVKGKWEHSAPIKWPPPQTLHELRSHVRALLPGACIRRLLYGRVLVTWRAPVLEHHHHHH”: the protein production result is reported as “failed”. As to “MDQQSIVSILMILATFGLYIGISIYNRARATSDFYVASRGVPPFWNGMAIGGDWMSAASFIGMAGTIMILGYDGLAYIMGWTGGYLFLTFLFAPQLRKYGRYTVPEFIGDRYGSNTARLIAAIATIIISFTYIIGQLSGSGVVIGRILNIPAMYGTMIGVVVIAIYATLGGMKGITWTQVAQYIILIVAYIIPIVFMSLQLSGNPFPWLTYGNFISQLDGLDQELGLSQILQPFMESDKSQFIALMFTLMVGTAALPHVIVRFYTVTTMKAARWSGAWALIFIALLYLSAPAYAAFSRFILMTQVANQPIDQLPAWTEAWINTGLLEMADANGDGILQWEELRISNDIVVMATPEIANLGMFVIGLVAAGAMAAALSTAGGLLITISSSFAHDIYYRLMNPKASDQKRLLAGRIAIVLATIVAGVVALDPPGVITQIVAWAFGLAGGAFFPVLLLGVWWKRANAKGAIAGMLSGLAVTLVYIFLARTGTFTLFGIQDTGAGLIGVPVNLFVTIVVSLMTAAPSQKLQDEVVDLRYPEQMTYKDGEVWMDESSGK”, the protein production result is listed as “failed”. In the case of “MDRECERDPYYDDLKVAKRAIEQMEMVAMMEGIPKFCPCGGSIVDTRKDEKRYYQCEKFKDDRTDLMHIRKLWDKAMEEEVSSLRESVDYNRKKVLSHEYLIEEMQKELKAHRAEIVNVSKVVFRNPMAPKK” it was “failed”. With “MDRIKSWEYDDVYNKFAIKDLDKSSFKRGSHIPIKVRKVFECEDIKYGDKKKITLIYKGEAFPAEIEGEIKGRIRMNWPKLIPKMKEVFKNEINDFEDSKELSVRVPRLKFTKETAIKYDVEMKTKYSHDVLCELERLDIDVENKTIEEINEVGEVIERVVKARKNQNKFREALFKRDGKCKICGLAHKELLIASHIKPWSKSTPEEKLNPFNGFLLCPNHDSLFDKHLISFKDNGEIIISKRLSEKEQELLSINKDIMINIEEGNKKFLKEHRDVFCKIEKAFDLEKELAISNKEIYNVELEV”, the protein production entry was “failed”.

Take “MDRLPILKLGDCLLVTIQVELHDRLALTLQDDLTTMIANTGARGVLIDISALDIVDSFIARVLGNIAAMSRVLGAETMVVGMQPAVAITLVELGVTWQHMHTALSVERGLERLKVLIAERHTLRGHSPRGKRGGGVDGSRH”: the protein production result was “failed”. As for “MDRLTEMEAFANVVDQGGFTDAAKKMGISKSAVSKHVSSLEARLGARLLNRTTRRVSPTEIGLAYYDRARRVLNDAGEADALVTSMQSAPSGLLRISVATDFGVNHLSPVLSDFLAEFPDITVNMVLNNRYVELISEGFDMAVRIGELEDSTLRARKLTETTKRMIASPKYFEKYGHPQKIDDLNEHKLLHYSSQASGNVWKLTAPSGEKRQVRTAGWLSVNDGQSLLNAAISGLGIAYLPCYLFAEAMEQGLVEDAMPSLPDEVQGIYAVYPPGRFTQPKVRAFIDFLVHSFADKGPMNW”, the protein production result is listed as “not failed”.

Take “MDSEAQQISLLIGKEDRYGRVEVNLMEVEPMNAEDFNAKLDVSFKAWKDQGKKGIWIKLPCELSSLVDIAMKKGFTYHHAENEYAVLSSWISDLPNTIPANASHRIGIGALVLNKNREVLAVQEIDGVFKDTGLWKLPTGVIQENRENFRYMANICLKRSQEKEYLGFSNVLTKNSTGKESYLYCSTDHAYFLKGKPDHSSTSLFTTLLRKCFSI”: the protein production entry is given as “failed”. To “MDSKDESSHVWPTSAEHEQNAAQVHFVPDTGTVAQIVYTDDQVRPPQQVVYTADGASYTSVDGPEHTLVYIHPVEAAQTLFTDPGQVAYVQQDATAQQASLPVHNQVLPSIESVDGSDPLATLQTPLGRLEAKEEEDEDEDEDTEEDEEEDGEDTDLDDWEPDPPRPFDPHDLWCEECNNAHASVCPKHGPLHPIPNRPVLTRARASLPLVLYIDRFLGGVFSKRRIPKRTQFGPVEGPLVRGSELKDCYIHLKVSLDKGDRKERDLHEDLWFELSDETLCNWMMFVRPAQNHLEQNLVAYQYGHHVYYTTIKNVEPKQELKVWYAASYAEFVNQKIHDISEEERKVLREQEKNWPCYECNRRFISSEQLQQHLNSHDEKLDVFSRTRGRGRGRGKRRFGPGRRPGRPPKFIRLEITSENGEKSDDGTQDLLHFPTKEQFDEAEPATLNGLDQPEQTTIPIPQLPQETQSSLEHEPETHTLHLQPQHEESVVPTQSTLTADDMRRAKRIRLELQNAALQHLFIRKSFRPFKCLQCGKAFREKDKLDQHLRFHGREGNCPLTCDLCNKGFISSTSLESHMKLHSDQKTYSCIFCPESFDRLDLLKDHVAIHINDGYFTCPTCKKRFPDFIQVKKHVRSFHSEKIYQCTECDKAFCRPDKLRLHMLRHSDRKDFLCSTCGKQFKRKDKLREHMQRMHNPEREAKKADRISRSKTFKPRITSTDYDSFTFKCRLCMMGFRRRGMLVNHLSKRHPDMKIEEVPELTLPIIKPNRDYFCQYCDKVYKSASKRKAHILKNHPGAELPPSIRKLRPAGPGEPDPMLSTHTQLTGTIATPPVCCPHCSKQYSSKTKMVQHIRKKHPEFAQLSNTIHTPLTTAVISATPAVLTTDSATGETVVTTDLLTQAMTELSQTLTTDYRTPQGDYQRIQYIPVSQSASGLQQPQHIQLQVVQVASATSPHQSQQSTVDVGQLHDPQPYPQHAIQVQHIQVSEPTASAPSSAQVSGQPLSPSAQQAQQGLSPSHIQGSSSTQGQALQQQQQQQQNSSVQHTYLPSAWNSFRGYSSEIQMMTLPPGQFVITDSGVATPVTTGQVKAVTSGHYVLSESQSELEEKQTSALSGGVQVEPPAHSDSLDPQTNSQQQTTQYIITTTTNGNGSSEVHITKP” belongs “failed”. As to “MDSLTSLTSFVRTAETLSFVQAARLLGISASAVGKNVARLEHKLGVRLFNRSTRNVSLTAEGAAFLTRCQSILEQIQEAESELTSSLSQPTGKLRISLPVIGYRLLLPALTAFSRLYPQVELDLDFSDRLVNLIDEGVDVAIRSGELADSRLIARKLGGFRFVLCASPAYLAEYGAPDSPAELAAHKCIFFRFPATGLIQPWELRGMRLTGDFRSAAVMTVNNIEAAIRLSAAGMGIAYVPDFVVREAMDEGQLQEVLPGCCIKDGHFSVLWPASRYLSPRIRCFIDFMAAAEIPLSPASAPPPLVSNNLR”, the protein production result is reported as “failed”. To “MDSSLANINQIDVPSKYLRLLRPVAWLCFLLPYAVGFGFGITPNASLQHAVLGLLSFAFWMAFSFTINALYDRDVDRLHDGRVKDLNLSMQPLVTGEISVREAWLYCIAFLALSLATAAAINEKFFLAMLGANIIGYVYSAPPRFKAWPVMDVICNALAAVLAFYAGLSIGGAEVPIAIYPAAFFLAATFYIPTAVSDYEFDKKAGLKNTPVFFGPERALKSLYPLSAITVILWAYVFLMAERIEIKVISPLIIAYTLIYTFIINSRWDGEKLNVSPNLILTPFGIISALFIAYGFAVISVLG” belongs “failed”; to “MDSSSISSLLEDLKHSDALVREQATKKLWRIWFQQKGMYGLEKIDQSQKLLDAGEITEAEVMLTQLIQEQPDFAEAWNRRAFLYYSMGEYQKSLADCQMVIQINPVHFGALHGIGLCYAALGKYAKAIKAFKRALEIQPYSLVNQKLILECTFRLSLEHHHHHH”, “failed”.
